Holding throughout (test): phage ELISA
For assay [1], the target named is T1, recombinant mouse TfR-1 (mouse, UniProt Q62351 89-763).
T1 construct: Bought recombinant protein; also called mTfR1
How it is done:
After the third round of selection, instead of pooling bacterial colonies, individual phagemid clones were grown in 1 ml of 2TY medium containing glucose and ampicillin in 96-well blocks and used to rescue the phages. After an overnight culturing, bacteria were spun down and an aliquot of the phage supernatant was sent for Sanger sequencing (Genewiz); VNAR CDR3 sequences were identified using BioEdit (a sequence alignment editor). Another aliquot was blocked with 2.5% milk for phage ELISAs. High-binding ELISA plates (Greiner) were coated with 1 μg/ml of recombinant human or mouse TfR-1. The plates were then blocked with 2.5% milk in PBST. Blocked phages were added to the blocked plates and the VNAR-phage clones binding to the antigens were detected with HRP-labelled anti-M13 coat protein antibodies (Sino Biological), and chromogenic TMB substrate (KLM)
T1 sequence (Q62351 89-763 limits assumed): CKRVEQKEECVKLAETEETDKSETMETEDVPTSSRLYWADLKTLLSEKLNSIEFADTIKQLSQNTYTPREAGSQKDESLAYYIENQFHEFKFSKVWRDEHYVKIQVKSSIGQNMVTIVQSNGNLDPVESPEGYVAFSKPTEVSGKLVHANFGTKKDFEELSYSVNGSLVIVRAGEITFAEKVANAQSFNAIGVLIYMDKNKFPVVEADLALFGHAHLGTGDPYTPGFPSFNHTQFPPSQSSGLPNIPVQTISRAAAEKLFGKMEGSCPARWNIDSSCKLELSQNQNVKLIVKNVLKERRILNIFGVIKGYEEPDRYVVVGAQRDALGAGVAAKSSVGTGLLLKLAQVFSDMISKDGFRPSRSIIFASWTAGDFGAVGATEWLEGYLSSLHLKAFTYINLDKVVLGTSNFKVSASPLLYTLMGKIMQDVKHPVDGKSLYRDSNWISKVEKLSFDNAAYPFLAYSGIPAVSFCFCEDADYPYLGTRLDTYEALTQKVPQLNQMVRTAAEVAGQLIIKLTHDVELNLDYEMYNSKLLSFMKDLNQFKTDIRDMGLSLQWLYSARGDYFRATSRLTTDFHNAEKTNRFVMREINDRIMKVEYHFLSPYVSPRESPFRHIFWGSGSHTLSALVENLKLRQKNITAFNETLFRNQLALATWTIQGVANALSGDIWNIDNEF

In a further assay the target is T2, recombinant human TfR-1 (human, UniProt P02786 89-760).
T2 construct: Recombinant protein coated at 1 ug/ml in the phage ELISA; also called hTfR1; human transferrin receptor-1
T2 sequence (P02786 89-760 limits assumed): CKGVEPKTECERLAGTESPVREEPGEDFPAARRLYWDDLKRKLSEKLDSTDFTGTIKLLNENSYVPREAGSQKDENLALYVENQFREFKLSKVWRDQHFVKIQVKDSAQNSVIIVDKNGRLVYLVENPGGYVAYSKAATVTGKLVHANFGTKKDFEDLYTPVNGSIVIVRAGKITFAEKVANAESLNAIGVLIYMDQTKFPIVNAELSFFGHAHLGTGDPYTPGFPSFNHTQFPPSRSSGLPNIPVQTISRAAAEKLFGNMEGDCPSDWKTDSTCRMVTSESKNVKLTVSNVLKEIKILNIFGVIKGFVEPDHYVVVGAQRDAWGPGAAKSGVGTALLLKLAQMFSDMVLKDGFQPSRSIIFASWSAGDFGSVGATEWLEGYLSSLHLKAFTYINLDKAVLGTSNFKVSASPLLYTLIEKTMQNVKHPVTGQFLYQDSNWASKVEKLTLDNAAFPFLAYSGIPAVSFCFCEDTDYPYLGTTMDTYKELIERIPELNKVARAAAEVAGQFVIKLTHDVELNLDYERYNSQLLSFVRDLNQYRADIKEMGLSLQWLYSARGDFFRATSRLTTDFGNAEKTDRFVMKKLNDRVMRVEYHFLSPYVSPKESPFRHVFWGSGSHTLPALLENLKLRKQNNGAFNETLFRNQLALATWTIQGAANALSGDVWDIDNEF

The target in assay [2] is T3, recombinant mouse TfR-1 (mouse, UniProt Q62351 89-763).
T3 construct: Recombinant protein coated at 1 ug/ml in the phage ELISA; also called mTfR1; mouse transferrin receptor-1
T3 sequence (Q62351 89-763 limits assumed): as the sequence (Q62351 89-763 limits assumed) above

Positions count from the first letter of the chain named.

B1: Clone 45 (VNAR)
VNAR: AVDQTPQTITKETGESLTINCVLRDSNCALSNLYWYRKKSDSTNEESISKGGRYVETVNSGSKSFSLRINDLTVEDSGTYRCNVCWWFSSRCTTCDVYGDGTAVTVNA
notes: VNAR on phage
In the case of B1, the binding result in the assay with recombinant mouse TfR-1 [1] was “no binding”.

B2: Clone 44 (VNAR)
VNAR: ARVDQTPRSVTKETGESLTINCVLRDASYELGSTCWYRKKSGSTNEESISKGGRYVETVNSGSKSFSLRINDLTVEDGGTYRCGAGSVQRSTSQCDRLWSRCWRTRFKIAACGDGTAVTVNA
notes: VNAR on phage
Take B2: the binding result with recombinant mouse TfR-1 [1] was “no binding”.

B3: Clone 48 (VNAR)
VNAR: ARVDQTPRSVTKETGESLTINCVLRDASYELGSTCWYRKKSGSTNEESISKGGRYVETVNSGSKSFSLRINDLTVEDGGTYRCGASFMLSHPGGCDSCVIMCQTRRQGVAACGDGTAVTVNA
notes: VNAR on phage
As for B3, in the assay with recombinant mouse TfR-1 [1], the binding result is “no binding”.

B4: Clone 8.124 (VNAR)
VNAR: ARVDQTPQTITKETGESLTINCVLRDSNCALPSTYWYRKKSGSTNEESISKGGRYVETVNSGSKSFSLRINDLTVEDSGTYRCKVIAQLSSVKDGCNYRKHDVYGDGTAVTVNA
notes: VNAR on phage; Clone 8 framework
B4: the values for the A450 with recombinant human TfR-1 and with recombinant mouse TfR-1 [2] were 0.049 A450 and 0.048 A450, respectively.

B5: Clone 8.127 (VNAR)
VNAR: B4 VNAR with Q88K, L89P, S90N, V92I, K93L, D94R
notes: as for B4
In the case of B5, the A450 with recombinant human TfR-1 and with recombinant mouse TfR-1 [2] was 0.047 A450 each time.

B6: Clone 8.133 (VNAR)
VNAR: B4 VNAR with V92R, K93E, D94L
notes: VNAR on phage; Clone 8 framework; same CDR3 as 8.104
In the case of B6, the A450 with recombinant human TfR-1 and in the assay with recombinant mouse TfR-1 [2] was 0.047 A450 each time.

B7: Clone 8.140 (VNAR)
VNAR: B4 VNAR with Q88I, L89T, S90L, V92I, K93L, D94R
notes: as for B4
On to B7, for which the A450 in the assay with recombinant human TfR-1 is 0.053 A450; with recombinant mouse TfR-1 [2] it was 0.045 A450.

B8: Clone 8.147 (VNAR)
VNAR: B4 VNAR with V92I, K93L, D94R, N97E, Y98G, R99D
notes: as for B4
B8: the A450 with recombinant human TfR-1 amounted to 0.052 A450; with recombinant mouse TfR-1 [2], 0.045 A450.

B9: Clone 8.145 (VNAR)
VNAR: B4 VNAR with V92I, K93L, D94Q, G95P, N97Y
notes: as for B4
As for B9, the A450 with recombinant human TfR-1 came out at 0.053 A450; with recombinant mouse TfR-1 [2], 0.045 A450.

B10: Clone 8.142 (VNAR)
VNAR: B4 VNAR with S90H, S91A, V92N, K93L, D94R
notes: as for B4
On to B10, for which the values for the A450 in the assay with recombinant human TfR-1 and with recombinant mouse TfR-1 [2] were 0.052 A450 and 0.045 A450, respectively.

B11: Clone 8.136 (VNAR)
VNAR: B4 VNAR with V92A, K93G, D94I
notes: as for B4
In the case of B11, the figures for the A450 with recombinant human TfR-1 and with recombinant mouse TfR-1 [2] were 0.055 A450 and 0.046 A450, respectively.

B12: Clone 8.126 (VNAR)
VNAR: B4 VNAR with L89Q, S90D, S91Q, V92D, K93L, D94R
notes: as for B4
For B12, the figures for the A450 with recombinant human TfR-1 and with recombinant mouse TfR-1 [2] were 0.05 A450 and 0.048 A450, respectively.

B13: Clone 8.139 (VNAR)
VNAR: B4 VNAR with I86D, Q88H, V92I, K93L, D94R
notes: as for B4
For B13, the A450 with recombinant human TfR-1 is 0.05 A450; in the assay with recombinant mouse TfR-1 [2] it was 0.045 A450.

B14: Clone 8.125 (VNAR)
VNAR: B4 VNAR with V92Y, K93E, D94T
notes: as for B4
As for B14, the A450 in the assay with recombinant human TfR-1 amounted to 0.05 A450; with recombinant mouse TfR-1 [2], 0.048 A450.

B15: Clone 8.131 (VNAR)
VNAR: B4 VNAR with V92I, K93L, D94R, R99L, K100D, H101L
notes: as for B4
With B15, the values for the A450 with recombinant human TfR-1 and in the assay with recombinant mouse TfR-1 [2] were 0.066 A450 and 0.047 A450, respectively.

B16: Clone 8.144 (VNAR)
VNAR: B4 VNAR with V92G, K93H, D94R
notes: as for B4
B16: the results for the A450 with recombinant human TfR-1 and with recombinant mouse TfR-1 [2] were 0.05 A450 and 0.045 A450, respectively.

B17: Clone 8.130 (VNAR)
VNAR: B4 VNAR with V92I, K93L, D94R, R99A, K100H, H101L
notes: as for B4
Regarding B17, the results for the A450 with recombinant human TfR-1 and in the assay with recombinant mouse TfR-1 [2] were 0.049 A450 and 0.047 A450, respectively.

B18: Clone 8.128 (VNAR)
VNAR: B4 VNAR with S90I, S91K, V92N, K93L, D94R
notes: as for B4
Turning to B18, the values for the A450 in the assay with recombinant human TfR-1 and with recombinant mouse TfR-1 [2] were 0.051 A450 and 0.047 A450, respectively.

B19: Clone 8.143 (VNAR)
VNAR: B4 VNAR with S90H, S91C, V92M, K93L, D94R
notes: as for B4
Regarding B19, the results for the A450 in the assay with recombinant human TfR-1 and with recombinant mouse TfR-1 [2] were 0.051 A450 and 0.045 A450, respectively.

B20: Clone 8.129 (VNAR)
VNAR: B4 VNAR with V92I, K93L, D94R, Y98Q, R99P
notes: as for B4
Consider B20, for which the A450 with recombinant human TfR-1 and in the assay with recombinant mouse TfR-1 [2] was 0.047 A450 in each case.

B21: Clone 8.134 (VNAR)
VNAR: B4 VNAR with I86D, A87L, Q88T, V92I, K93L, D94R
notes: as for B4
With B21, the A450 amounted to 0.053 A450 with recombinant human TfR-1 and 0.046 A450 in the assay with recombinant mouse TfR-1 [2].

B22: Clone 8.148 (VNAR)
VNAR: B4 VNAR with V92I, K93L, D94R, R99E, K100H
notes: as for B4
Regarding B22, the A450 in the assay with recombinant human TfR-1 turned out to be 0.049 A450; with recombinant mouse TfR-1 [2] it was 0.045 A450.

B23: Clone 8.141 (VNAR)
VNAR: B4 VNAR with Q88K, L89A, V92I, K93L, D94R
notes: as for B4
For B23, the A450 in the assay with recombinant human TfR-1 came to 0.051 A450; in the assay with recombinant mouse TfR-1 [2], 0.045 A450.

B24: Clone 8.138 (VNAR)
VNAR: B4 VNAR with V92L, K93S, D94F
notes: as for B4
B24: the A450 with recombinant human TfR-1 is 0.047 A450; with recombinant mouse TfR-1 [2], 0.046 A450.

B25: Clone 8.132 (VNAR)
VNAR: B4 VNAR with V92I, K93L, D94R, R99M, K100H, H101P
notes: as for B4
In the case of B25, the A450 in the assay with recombinant human TfR-1 is 0.053 A450; in the assay with recombinant mouse TfR-1 [2], 0.047 A450.

B26: Clone 8.135 (VNAR)
VNAR: B4 VNAR with S90F, S91P, V92P, K93L, D94R
notes: as for B4
Take B26: the A450 with recombinant human TfR-1 came to 0.058 A450; in the assay with recombinant mouse TfR-1 [2], 0.046 A450.

B27: Clone 8.146 (VNAR)
VNAR: B4 VNAR with V92I, K93L, D94R, N97E, Y98A
notes: as for B4
B27: the A450 with recombinant human TfR-1 and with recombinant mouse TfR-1 [2] was 0.045 A450 each time.

B28: Clone 33 (VNAR)
VNAR: PRVDQTPQTITKETGESLTINCVLRDSNCALSNLYWYRKKSGSTNEESISKGGRYVETVNSGSKSFSLRINDLTVEDSGTYRCNVLVGMLSGCGFQRGDVYGGGTAVTVNA
notes: VNAR on phage
As to B28, the binding result in the assay with recombinant mouse TfR-1 [1] was “no binding”.

B29: Clone 59 (VNAR)
VNAR: ARVDQTPQTITKETGESLTINCVLRDSNCALPSTYWYRKKSGSTNEESISKGGRYVETVNSGSKSFSLRINDLTVEDSGTYRCNVSLQFCCLSFDVYGGGTAVTVNA
notes: VNAR on phage
For B29, the binding result in the assay with recombinant mouse TfR-1 [1] is given as “no binding”.

B30: Clone 50 (VNAR)
VNAR: B29 VNAR with G42D, E76K, S86L, L87I, F89C, C91S, L92P, S93T, F94C
notes: VNAR on phage
B30: in the assay with recombinant mouse TfR-1 [1], the binding result was “no binding”.

B31: Clone 38 (VNAR)
VNAR: B29 VNAR with R69K, S86R, L87I, Q88I, F89Q, L92V, F94Q, A102V
notes: VNAR on phage
Take B31: in the assay with recombinant mouse TfR-1 [1], the binding result is recorded as “no binding”.

B32: Clone 41 (VNAR)
VNAR: ARVDQTPQTITKETGESLTINCVLRDSNCALSNLYWYRKKSGSTNEESISLGGRYVETVNSGSKSFSLRINDLTVEDSGTYRCKVTCEVALQPYYGQEPTQDVYGGGTVVTVNA
notes: VNAR on phage
As to B32, the binding result with recombinant mouse TfR-1 [1] is on record as “no binding”.

B33: Clone 42 (VNAR)
VNAR: ARVDQTPQTITKETGESLTINCVLRDSNCELSSTYWYRKKSGSTNEARISKGGRYVETVNSGSKSFSLRINDLTVEDSGTYRCKVRKALVQSQSCCQPLHRDVYGDGTAVTVNA
notes: VNAR on phage
Turning to B33, in the assay with recombinant mouse TfR-1 [1], the binding result is on record as “no binding”.

B34: Clone 47 (VNAR)
VNAR: PRVDQTPQTITKETGESLTINCVLRDSNCALPSTYWYRKKSGSTNEENISKGGRYVETVNSGSKSFSLKINDLTVEDSGTYRCNVIINPLSCYYLQLQDVYGGGTAVTVNA
notes: VNAR on phage
B34: the binding result with recombinant mouse TfR-1 [1] is reported as “no binding”.

B35: Clone 32 (VNAR)
VNAR: ARVDQTPQTITKETGESLTINCVLRDSNCALSSTYWYRKKSGSTNEENISKGGRYVETVNSGSKSFSLRINDLTVEDSGTYRCNVQDMLTPNDGQLWDVYGDGTAVTVNA
notes: VNAR on phage
B35: the binding result with recombinant mouse TfR-1 [1] is “no binding”.

B36: Clone 49 (VNAR)
VNAR: ARVDQTPQTITKETGESLTINCVLRDSNCALPSTYWYRKKSGSTNEESISKGGRYVETVNSGSKSFSLKINDLTVEDSGTYRCNVQGRAAYSGLVCDVYGGGTAVTVNA
notes: VNAR on phage
For B36, the binding result with recombinant mouse TfR-1 [1] is listed as “no binding”.

B37: Clone 57 (VNAR)
VNAR: B36 VNAR with K69R, Q86R, R88F, A89K, A90Q, Y91C, S92Y, G93D, V95R, C96L
notes: VNAR on phage
Turning to B37, the binding result in the assay with recombinant mouse TfR-1 [1] is listed as “no binding”.

B38: Clone 46 (VNAR)
VNAR: ARVDQTPRVTKETGESLTINCVLRDASYELGSTCWYRKKSGSTNEESISKGGRYVETVNSGSKSFSLRINDLTVEDGGTYRCGASGSQGQVYRCDRLTLCCLQMQWQVAACGDGTAVTVNA
notes: VNAR on phage
On to B38, for which the binding result with recombinant mouse TfR-1 [1] was “no binding”.

The values are drawn from patent US20210395381A1 (OSSIANIX, published 2021).
